Article PMC3229523, “Identification of Lactoferricin B Intracellular Targets Using an Escherichia coli Proteome Chip” (PLoS ONE, 2011)
Ends that are not written are not given here. * marks the point of attachment. Biotin = O=C1N[C@H]2[C@H](CS[C@H]2CCCCC(=O)*)N1

Assays:
Assay in all cases: peptide or protein array; E. coli proteome chip: purified His-tagged proteins printed in duplicate on Fullmoon slides, blocked with 1% BSA; 10 nM N-terminal biotinylated LfcinB with 1% BSA, room temperature, 1 h; detected with DyLight 649-labeled streptavidin, ratio to DyLight 549-labeled anti-His antibody; ProCAT normalisation, local cut-off; triplicate chips
Conditions in all cases: both partners purified
[1] = target: T1, phosphoenolpyruvate carboxylase (E. coli K-12, UniProt P00864 1-883)
T1 construct: Ppc, phosphoenolpyruvate carboxylase, E. coli K-12; also called Ppc
T1 sequence (looked up): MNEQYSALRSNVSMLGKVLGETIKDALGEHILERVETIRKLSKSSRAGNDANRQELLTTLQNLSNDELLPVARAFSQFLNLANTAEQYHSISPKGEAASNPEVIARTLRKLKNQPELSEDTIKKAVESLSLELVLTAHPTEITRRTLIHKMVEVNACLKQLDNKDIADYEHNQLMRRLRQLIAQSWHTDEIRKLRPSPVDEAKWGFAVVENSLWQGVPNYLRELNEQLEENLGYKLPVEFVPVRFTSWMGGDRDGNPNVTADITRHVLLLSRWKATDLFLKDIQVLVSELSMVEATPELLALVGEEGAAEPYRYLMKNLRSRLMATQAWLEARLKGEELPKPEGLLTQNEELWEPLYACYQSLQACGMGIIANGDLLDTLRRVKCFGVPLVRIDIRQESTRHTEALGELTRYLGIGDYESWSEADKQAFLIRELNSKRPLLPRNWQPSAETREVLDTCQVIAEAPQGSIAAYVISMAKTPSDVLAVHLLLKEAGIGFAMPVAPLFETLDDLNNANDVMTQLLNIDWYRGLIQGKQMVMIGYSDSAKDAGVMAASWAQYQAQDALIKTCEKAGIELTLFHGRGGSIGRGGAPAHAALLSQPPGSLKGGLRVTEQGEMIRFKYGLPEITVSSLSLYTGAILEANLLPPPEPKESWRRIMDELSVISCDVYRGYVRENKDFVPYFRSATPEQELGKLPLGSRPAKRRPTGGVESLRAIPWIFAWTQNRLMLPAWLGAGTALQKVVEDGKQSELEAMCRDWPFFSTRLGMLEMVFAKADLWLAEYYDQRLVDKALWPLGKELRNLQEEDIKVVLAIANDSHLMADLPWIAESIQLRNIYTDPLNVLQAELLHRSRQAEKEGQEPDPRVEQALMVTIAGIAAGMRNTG

[2] = target: T2, YobG (E. coli K-12, UniProt P64512 1-47)
T2 construct: YobG, E. coli K-12
T2 chain (looked up): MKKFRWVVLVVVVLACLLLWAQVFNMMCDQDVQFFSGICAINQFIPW

[3] = target: T3, YcgW (E. coli K-12, UniProt P75987 1-107)
T3 construct: YcgW, E. coli K-12
T3 sequence (looked up): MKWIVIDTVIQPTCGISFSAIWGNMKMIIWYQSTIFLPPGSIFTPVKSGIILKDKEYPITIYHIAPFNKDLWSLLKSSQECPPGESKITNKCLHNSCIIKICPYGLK

[4] = target: T4, AceK (E. coli K-12, UniProt P11071 1-578)
T4 construct: AceK, E. coli K-12
T4 sequence (looked up): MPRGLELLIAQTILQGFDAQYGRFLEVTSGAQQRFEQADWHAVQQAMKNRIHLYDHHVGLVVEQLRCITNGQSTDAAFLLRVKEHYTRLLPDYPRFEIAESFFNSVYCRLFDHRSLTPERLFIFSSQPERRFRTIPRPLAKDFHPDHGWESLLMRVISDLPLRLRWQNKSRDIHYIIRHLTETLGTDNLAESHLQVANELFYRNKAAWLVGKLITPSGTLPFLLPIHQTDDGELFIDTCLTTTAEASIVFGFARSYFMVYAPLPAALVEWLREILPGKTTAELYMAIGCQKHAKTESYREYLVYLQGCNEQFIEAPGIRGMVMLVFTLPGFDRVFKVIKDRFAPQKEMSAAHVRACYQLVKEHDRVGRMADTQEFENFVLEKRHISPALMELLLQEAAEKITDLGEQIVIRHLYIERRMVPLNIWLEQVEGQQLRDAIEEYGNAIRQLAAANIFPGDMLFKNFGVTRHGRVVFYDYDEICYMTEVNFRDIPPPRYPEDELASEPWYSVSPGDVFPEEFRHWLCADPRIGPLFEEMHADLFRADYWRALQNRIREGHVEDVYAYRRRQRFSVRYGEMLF

[5] = target: T5, SrmB (E. coli K-12, UniProt P21507 1-444)
T5 construct: SrmB, E. coli K-12
T5 sequence (looked up): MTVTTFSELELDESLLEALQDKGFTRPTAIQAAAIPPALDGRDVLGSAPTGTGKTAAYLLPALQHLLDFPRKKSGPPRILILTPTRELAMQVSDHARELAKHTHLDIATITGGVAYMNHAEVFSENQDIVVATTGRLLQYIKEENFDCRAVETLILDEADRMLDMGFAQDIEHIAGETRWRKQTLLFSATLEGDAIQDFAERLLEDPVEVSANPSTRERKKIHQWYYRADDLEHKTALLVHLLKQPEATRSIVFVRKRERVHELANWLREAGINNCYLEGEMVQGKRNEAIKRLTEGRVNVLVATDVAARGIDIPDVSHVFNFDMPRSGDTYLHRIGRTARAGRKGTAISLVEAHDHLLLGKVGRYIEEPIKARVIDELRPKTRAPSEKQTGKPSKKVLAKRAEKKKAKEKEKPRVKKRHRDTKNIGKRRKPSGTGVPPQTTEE

Measured: binding result

B1: N-terminal biotinylated Lactoferricin B (peptide, UniProt P24627 36-60, looked up)
peptide: Biotin-FKCRRWQWRMKKLGAPSITCVRRAF
modifications: ends and bridges not checked
notes: lactoferricin B (LfcinB), cationic antimicrobial peptide of 25 amino acids; also called biotinylated LfcinB; biotin-labeled LfcinB; source: bought: Kelowna Inc
binds: all assays above
